The values below are quoted from earlier work in paper PMC4525192 (European Journal of Nuclear Medicine and Molecular Imaging, 2014).

The subject of the data set is tumour. Particulars: intravenously administered.

In the case of `C[C@@H](O)[C@@H]1NC(=O)[C@H](CCCCN)NC(=O)[C@@H](Cc2c[nH]c3ccccc23)NC(=O)[C@H](Cc2ccc(O)cc2)NC(=O)[C@@H](NC(=O)[C@@H](Cc2ccccc2)NC(=O)CN2CCN(CC(=O)O)CCN(CC(=O)O)CCN(CC(=O)O)CC2)CSSC[C@@H](C(=O)N[C@H](CO)[C@@H](C)O)NC1=O` [DOTATOC, (DOTA^0-Phe^1-Tyr^3) octreotide], the “Time after injection at which 80 % of Umax is reached” value is 45 min and the “Time of tumoral accumulation maximum (Umax) after injection” value was “about 70 min”.
